{"source": "paper PMC6025902", "about": "(Science Advances, 2018)", "target": "monomeric amyloid-β peptide 1–42 (Aβ42) (human, UniProt P05067 672-713)", "assay": "ITC", "data": [{"binder": "S100B protein (natural protein) MSELEKAMVALIDVFHQYSGREGDKHKLKKSELKELINNELSHFLEEIKEQEVVDKVMETLDNDGDGECDFQEFMAFVAMVTTACHEFFEHE", "values": [{"measurement": "Kd", "result": "590 ± 230", "unit": "nM"}, {"measurement": "dH", "result": "-0.947 ± 0.0295", "unit": "kcal/mol"}, {"measurement": "stoichiometry N", "result": "2.37 ± 0.07"}]}]}
